Results: US20090068174A1, “THERAPEUTIC ALKALINE PROTEASE COMPOSITIONS AND USE IN FACILITATING THE TRANSPORT OF AGENTS ACROSS THE GASTROINTESTINAL MUCOSAL LINING” (Kansas University Medical Center Research Institute, Inc., priority 2007, published 2009)

Tests used:
mouse recombinant TNF-α = biological target: T1, mouse recombinant TNF-α (Mus musculus, UniProt P06804); assay: Cleavage of mouse TNF-α (Western blotting); type: biochemical; details: 100 ng cytokine, 37° C. overnight, Western blot
T1 sequence (P06804 80-235 limits assumed): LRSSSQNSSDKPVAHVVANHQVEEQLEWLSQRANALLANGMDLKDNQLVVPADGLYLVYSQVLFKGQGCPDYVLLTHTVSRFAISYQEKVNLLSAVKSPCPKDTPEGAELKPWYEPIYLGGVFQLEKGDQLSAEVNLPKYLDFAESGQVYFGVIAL
Experimental: (§1) Degradation of mouse recombinant TNF-α: (A) or IFN-γ (B) following treatment with: the protease powder prepared according to Example 1 (preparation), purified alkaline protease (AP); Pseudomonas elastase (E); and buffered-treated control (C). The cytokines (100 ng each) were incubated at 37° C. overnight with the indicated quantities (ng) of enzymes, and then analyzed by Western blotting for evidence of degradation. A scan of AP-treated mouse TNF-α (left-hand Western blot) showing the decreasing density of the top band as a function of alkaline protease concentration (C).
(§2) Because the anti-TNF-α used here was specific for an epitope located in the carboxyl terminus of the cytokine, the pattern of cleavage is most consistent with attack at the amino terminus of TNF-α (e.g., there is a loss of molecular mass without a loss of the epitope recognized by the antibody).

mouse recombinant IFN-γ = biological target: T2, mouse recombinant IFN-γ (Mus musculus, UniProt P01580); assay: Cleavage of mouse IFN-γ (Western blotting); type: biochemical; details: 100 ng cytokine, 37° C. overnight, Western blot
T2 sequence (P01580 23-155): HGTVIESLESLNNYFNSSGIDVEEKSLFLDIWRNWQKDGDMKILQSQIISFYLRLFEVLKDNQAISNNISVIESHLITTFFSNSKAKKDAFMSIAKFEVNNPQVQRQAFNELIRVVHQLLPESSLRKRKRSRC
Experimental: as §1, §2

human IFN-γ = biological target: T3, human IFN-γ (Homo sapiens, UniProt P01579); assay: Fc receptor-inducing activity of protease-treated human IFN-γ on U937 cells; type: cell-based; set-up: key: +: Indicates that the protease inactivated the cytokine; ^a: Cleavage of the cytokine occurred without inactivation; details: Table 7 summary
T3 sequence (P01579 24-166): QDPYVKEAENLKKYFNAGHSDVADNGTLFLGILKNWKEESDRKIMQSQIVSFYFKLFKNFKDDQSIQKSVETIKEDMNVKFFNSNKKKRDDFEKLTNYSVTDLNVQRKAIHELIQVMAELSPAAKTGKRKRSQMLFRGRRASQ
Experimental: (§3) Effects of the purified A. oryzae proteases on the Fc receptor-inducing activity of human IFN-γ. Samples of the cytokine were first treated with the indicated Pseudomonas or fungal proteases: Elastase (∘); Preparation ([…]); Alkaline Protease (□); Deuterolysin (▪); and 26 kDa Protease (Δ). The treated samples were added to human promyelocytic U937 cells to induce expression of Fc receptors for IgG, which was detected by flow cytometry. The results are plotted either as a decrease in of mean channel fluorescence (A) or a decrease in % positive cells (B) plotted against increasing protease amounts.
as §3, with “Samples” for “Effects of the purified A. oryzae proteases on the Fc receptor-inducing activity of human IFN-γ. Samples”

established IBD = assay: Established IBD in the hapten model in SJL mice; type: in vivo, mouse
Experimental: SJL mice can be given TNBS by enema for the induction of colitis, and their body weights can be monitored every 3 days. When there has been a decrease in body mass by at least 15% (typically day 7), the animals can be given either four i.p. injections of 10 μg alkaline protease every 12 hours (Group 1) or administered alkaline protease in their drinking water at a concentration found above to decrease IBD parameters (Group 2). A control group can be challenged with TNBS, but would not receive protease (Group 3). Body weights can then be monitored daily, and at the end of one week, mice are euthanized and tissues taken for scoring the various histopathological and immunohistochemical parameters as known in the art.

spontaneous colitis = assay: Spontaneous colitis in C3H/HeJBir mice; type: in vivo, mouse; details: weeks 6-10 of life
Description: This particular mouse strain develops a transmural Th1-, cytokine-dependent colitis similar to CD that begins at 3-6 wk of life and gradually wanes until it resolves at 3 months of age. T cells and Th1 cytokines (IL-112, IFN-γ and TNF-α) mediate the disease which is maintained by an ongoing reaction to microbial flora antigens.
C3H/HeJBir mice can be obtained at 5-6 wk of age from Jackson Labs. Mice can be divided into three groups, for example: Group 1 should receive no further treatment and may simply be monitored for clinical signs, including daily measurements of body weight and endpoint pathology. Group 2 should be administered alkaline protease in their drinking water at a dose of 10-25 mg/kg/week for one week. Group 3 should be administered alkaline protease in their drinking water (dose determined above) for two weeks. After 1 week (Group 2 and half of Group 1) or 2 weeks (Group 3 and half of Group 1), animals can be sacrificed and body weight changes and histopathological scores of inflammation and tissue damage (leukocyte infiltration, ulceration, abscesses and fibrosis), activated caspase-3 expression and TNF-α expression can be measured by methods known in the art.

[1] = Table 1; cited from earlier work

B1: Alkaline Protease: Aspergillus oryzae alkaline protease (oryzin), SEQ ID NO: 2, purified from the protease powder of Example 1 (protein, listed as Aspergillus oryzae)
chain: MQSIKRTLLLLGAILPAVLGAPVQETRRAAEKLPGKYIVTFKPGIDEAKIQEHTTWATNIHQRSLERRGATGGDLPVGIERNYKINKFAAYAGSFDDATIEEIRKNEDVAYVEEDQIYYLDGLTTQKSAPWGLGSISHKGQQSTDYIYDTSAGEGTYAYVVDSGVNVDHEEFEGRASKAYNAAGGQHVDSIGHGTHVSGTIAGKTYGIAKKASILSVKVFQGESSSTSVILDGFNWAANDIVSKKRTSKAAINMSLGGGYSKAFNDAVENAFEQGVLSVVAAGNENSDAGQTSPASAPDAITVAAIQKSNNRASFSNFGKVVDVFAPGQDILSAWIGSSSATNTISGTSMATPHIVGLSLYLAALENLDGPAAVTKRIKELATKDWKDVKGSPNLLAYNGNA
- Cleavage of mouse TNF-α (mouse recombinant TNF-α): evidenced the same substrate specificity
- Cleavage of mouse IFN-γ (mouse recombinant IFN-γ): partial degrades mouse IFN-γ
- Cleavage of mouse IFN-γ (mouse recombinant IFN-γ; listed as alkaline protease (AP)): evidenced the same substrate specificity
- Inactivation of Human IFN-γ (human IFN-γ): +
- Effect on established IBD (established IBD): can reverse and/or lessen established IBD
- Weight loss and pathological lesions (spontaneous colitis): can correct the weight loss and the pathological lesions
- Heat stability (stable at) [1]: 37 °C for 3 h
- pI [1]: 6.53
